This passage reports protein stability index results from the supplement of paper PMC9732359.

± gives the uncertainty stated by the source.

The series is described as follows: protein stability index of a GFP-peptide fusion (yeast GPS) (PSI 1-4); higher = more stable; sorted into four equal gates, so the index is relative within each strain. The procedure, abridged:
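Tiled 17-residue peptides from yeast proteins were fused downstream of GFP on a plasmid that also expresses Cherry, and the pooled library was carried in yeast. Mid-log cultures grown in leucine-free medium were sorted into four equal gates by GFP/Cherry fluorescence ratio. Plasmids from each gate were PCR-amplified and Illumina-sequenced, and reads were assigned to strains by barcodes. Each peptide's protein stability index is the sum, over gates, of the gate's read frequency multiplied by its gate number.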

As for RNHKHALHGTAKALAAA [RPL29], the protein stability index was found to be 2.502 ± 0.019 (doa10∆), 2.685 ± 0.017 (pdr5∆), 2.523 ± 0.018 (san1∆) and 2.647 ± 0.014 (ubr1∆).
For DRGLSIKLNGSTLLCTD [SNU114], in that order: 3.17 ± 0.14, 2.76 ± 0.08, 2.34 ± 0.092 and 3 ± 0.2.
KTLVYLEKCEAEFKKRK [YCS4]: the protein stability index reads like this: (doa10∆) 3.42 ± 0.28; (pdr5∆) 3.69 ± 0.17.
For the sequence SLVEVVFYRGMTMQVAV [FAS1], the protein stability index runs as follows: (doa10∆) 1.32 ± 0.06; (pdr5∆) 1.88 ± 0.059; (san1∆) 1.4 ± 0.11; (ubr1∆) 1.99 ± 0.12.
Consider ETKADGILLETISVPQI [RRP6], for which the protein stability index is, setting by setting: (doa10∆) 2.58 ± 0.076; (pdr5∆) 2.52 ± 0.056; (san1∆) 2.51 ± 0.061; (ubr1∆) 2.26 ± 0.053.
For YVNYEISTAKAWGALIT [YML103C/NUP188], in that order: 1.32 ± 0.052, 1.43 ± 0.049, 1.3 ± 0.073 and 1.4 ± 0.06.
The corresponding values for GVFDPASYSKYLIDHIK [RPL22B] are 3.12 ± 0.051, 3.1 ± 0.069, 2.92 ± 0.06 and 2.9 ± 0.043.
CRQEFLERVKANAAKRA [RPL21A]: the protein stability index (pdr5∆) worked out at 1.33 ± 0.23.
For the sequence QKDQDGRIPLHWSVSFQ [NAS6], the protein stability index came out at 3.29 ± 0.093 (doa10∆), 3.33 ± 0.079 (pdr5∆), 3 ± 0.13 (san1∆) and 3.06 ± 0.053 (ubr1∆).
The corresponding values for QGGNNELGTAVGKLFRV [RPL30] are 2.5 ± 0.12, 2.83 ± 0.093, 2.45 ± 0.06 and 2.84 ± 0.076.
The corresponding values for QQKLNTRMQRGHRADVG [REC8] are 2.84 ± 0.16, 2.85 ± 0.096, 2.84 ± 0.15 and 3.3 ± 0.088.
The corresponding values for FLWPFKLSNPSGGWGVP [RPL7A] are 3.16 ± 0.077, 2.85 ± 0.075, 3.16 ± 0.1 and 3.36 ± 0.14.
As to EKIKKINYHQYISKAQN [SSN2], the protein stability index was found to be 1.82 ± 0.055 (doa10∆), 2.18 ± 0.041 (pdr5∆), 2.07 ± 0.078 (san1∆) and 2.15 ± 0.062 (ubr1∆).
For the sequence WADNYERKEQEEKEKEQ [BRN1], the protein stability index came out at 3.47 ± 0.21 (doa10∆), 3.49 ± 0.11 (san1∆) and 3.46 ± 0.14 (ubr1∆).
For FAGSNNQPHQSQTPSFN [YOR098C/NUP1], the protein stability index runs as follows: (doa10∆) 2.68 ± 0.046; (pdr5∆) 2.91 ± 0.036; (san1∆) 2.73 ± 0.036; (ubr1∆) 3.01 ± 0.031.
On to GNIFSNIGTPSFNMAQI [SNF5], for which the protein stability index turned out to be 2.58 ± 0.099 (doa10∆), 2.66 ± 0.093 (pdr5∆), 3.05 ± 0.069 (san1∆) and 2.64 ± 0.054 (ubr1∆).
For SKISQMAQNKTHIPQTN [YLR018C/POM34], in that order: 1.83 ± 0.24, 2.21 ± 0.12, 2.07 ± 0.1 and 1.95 ± 0.07.
GSIFTHETTFMTAMRLM [YML031W/NDC1]: the protein stability index runs as follows: (doa10∆) 1.88 ± 0.072; (pdr5∆) 2.53 ± 0.083; (san1∆) 2.71 ± 0.065; (ubr1∆) 2.64 ± 0.081.
For DSIPRDVAYLLKSESAT [YGL172W/NUP49], in that order: 2.74 ± 0.092, 3.11 ± 0.079, 2.91 ± 0.05 and 3.19 ± 0.074.
As for VTHDCYRVTLESILQMN [RPC34], the protein stability index is, setting by setting: (doa10∆) 3.29 ± 0.28; (pdr5∆) 2.39 ± 0.27; (san1∆) 2.66 ± 0.16.
With KENYPWELYTDFNEIVQ [POP3], the protein stability index reads like this: (doa10∆) 2.42 ± 0.25; (san1∆) 2.4 ± 0.16.
Turning to KELTRIPGEEVEETEVP [MED4], the protein stability index reads like this: (doa10∆) 3.21 ± 0.16; (pdr5∆) 3.23 ± 0.21; (san1∆) 3.02 ± 0.13.
Turning to FFAYFIGWCKEDPKRRA [YJL039C/NUP192], the protein stability index reads like this: (doa10∆) 2.15 ± 0.15; (pdr5∆) 2.03 ± 0.078; (san1∆) 2.61 ± 0.057; (ubr1∆) 3.21 ± 0.066.
In the case of LGNGVACDPSEIEPILM [RGR1], the protein stability index is, setting by setting: (doa10∆) 2.06 ± 0.075; (pdr5∆) 2.19 ± 0.067; (san1∆) 3.34 ± 0.071; (ubr1∆) 2.91 ± 0.063.
Turning to NSIDVPIRINSTEEIEY [YMR129W/POM152], the protein stability index by setting is: (doa10∆) 1.76 ± 0.055; (pdr5∆) 2.27 ± 0.058; (san1∆) 2.01 ± 0.071; (ubr1∆) 2.6 ± 0.034.
The sequence PPSLKIIDGPKALILAP [PRP28] showed a protein stability index (doa10∆) of 1.62 ± 0.055, a protein stability index (pdr5∆) of 1.77 ± 0.07, a protein stability index (san1∆) of 1.51 ± 0.12 and a protein stability index (ubr1∆) of 1.63 ± 0.039.
For the sequence VDKNFDKLELYVLRNVL [MTW1], the protein stability index was 3.01 ± 0.096 (doa10∆), 2.43 ± 0.078 (pdr5∆), 2.81 ± 0.12 (san1∆) and 3.05 ± 0.071 (ubr1∆).
For ETELFEPGVLNTGDGSI [ECM29], in that order: 3.25 ± 0.15, 3.2 ± 0.11, 2.92 ± 0.12 and 3.07 ± 0.11.
With KILNIIKCSQSSHLSDN [POP5], the protein stability index is, setting by setting: (doa10∆) 1.97 ± 0.05; (pdr5∆) 2.77 ± 0.069; (san1∆) 2.28 ± 0.065; (ubr1∆) 2.09 ± 0.053.
GDAAPAEEAAAEEEEES [RPP0]: the protein stability index was determined as 3.67 ± 0.16 (pdr5∆), 3.29 ± 0.13 (san1∆) and 3.44 ± 0.12 (ubr1∆).
EIAGLSPYERRLIDLIR [RPL36A]: the protein stability index is, setting by setting: (doa10∆) 2.31 ± 0.088; (pdr5∆) 2.37 ± 0.077; (san1∆) 2.02 ± 0.14; (ubr1∆) 2.29 ± 0.071.
TLLYEQIIQRDKINKYS [SNF5]: the protein stability index by setting is: (doa10∆) 3.1 ± 0.08; (pdr5∆) 3.35 ± 0.089; (san1∆) 3.19 ± 0.059; (ubr1∆) 2.27 ± 0.072.
As to LKRISDGLSFGKGESVI [SIR3], the protein stability index (doa10∆) is 3.21 ± 0.28, the protein stability index (san1∆) is 3.33 ± 0.099 and the protein stability index (ubr1∆) was 3.76 ± 0.19.
In turn, HLILDKLNQKYDIVKFL [GRR1] yielded a protein stability index (doa10∆) of 1.83 ± 0.041, a protein stability index (pdr5∆) of 1.66 ± 0.035, a protein stability index (san1∆) of 1.3 ± 0.1 and a protein stability index (ubr1∆) of 1.81 ± 0.03.
The corresponding values for YGGSRCANCVKERIVRA [RPL34B] are 3.36 ± 0.21, 3.38 ± 0.089, 2.87 ± 0.076 and 3.15 ± 0.14.
